Molecular target: azide-labeled Aβ (14–23) peptide
Test: AFM force spectroscopy

rupture force, dimer of neighbouring peptides (two-peak curves, peaks close): 44 pN
rupture force, dimer of peptides 1 and 3 (two-peak curves, peaks far): 37 pN
rupture force, monomer from the trimer (peak 1): 48 pN
rupture force, monomer from the trimer (peak 1), second experiment: 44 pN
rupture force, remaining dimer to monomers (peak 2): 53 pN
rupture force, remaining dimer to monomers (peak 2), second experiment: 50 pN
stoichiometry N: 3
Substance: azide-labeled Aβ (14–23) peptide

Reference: PMC6093788
